For the test, the target named is human CD22-beta-ECD-His tagged soluble antigen (human) (UniProt P20273). Put plainly: SPR (BIACORE 3000), antibody coupled to the chip, soluble CD22-beta-ECD-His injected, 25 C. In general terms: In SPR one partner is held on a chip, and binding of the other changes the refractive index at the surface.

Broadly, the Kd is a measure of binding affinity in units of concentration. Lower therefore signals higher affinity. The term koff denotes a measure of how fast the partners let go of each other. Broadly, the kon is the rate constant with which the complex forms.

Chain of human CD22-beta-ECD-His tagged soluble antigen (human) (P20273 other isoform, or with tags, fused parts or gaps): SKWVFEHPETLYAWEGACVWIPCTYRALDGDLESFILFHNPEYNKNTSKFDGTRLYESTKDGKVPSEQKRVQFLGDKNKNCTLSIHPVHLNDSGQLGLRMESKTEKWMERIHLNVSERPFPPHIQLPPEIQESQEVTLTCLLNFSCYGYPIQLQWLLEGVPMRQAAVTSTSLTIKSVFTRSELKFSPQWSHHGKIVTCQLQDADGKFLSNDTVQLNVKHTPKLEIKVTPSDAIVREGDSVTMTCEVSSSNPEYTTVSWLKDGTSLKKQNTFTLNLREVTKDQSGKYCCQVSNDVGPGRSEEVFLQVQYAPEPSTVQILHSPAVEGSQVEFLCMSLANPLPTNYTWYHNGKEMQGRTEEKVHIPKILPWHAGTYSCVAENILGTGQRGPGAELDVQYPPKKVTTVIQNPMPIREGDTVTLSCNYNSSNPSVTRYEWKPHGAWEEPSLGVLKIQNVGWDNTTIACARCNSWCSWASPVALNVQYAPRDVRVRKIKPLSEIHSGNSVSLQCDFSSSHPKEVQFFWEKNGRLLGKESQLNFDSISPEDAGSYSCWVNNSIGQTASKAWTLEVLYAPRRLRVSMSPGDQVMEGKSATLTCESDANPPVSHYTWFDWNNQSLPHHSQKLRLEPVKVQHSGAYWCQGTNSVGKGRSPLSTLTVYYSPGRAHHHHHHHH

B1: anti-CD22 antibody RFB4 (antibody, from another filing, V domains shown)
VH: EVQLVESGGGLVKPGGSLKLSCAASGFAFSIYDMSWVRQTPEKRLEWVAYISSGGGTTYYPDTVKGRFTISRDNAKNTLYLQMSSLKSEDTAMYYCARHSGYGSSYGVLFAYWGQGTLVTVSA
VL: DIQMTQTTSSLSASLGDRVTISCRASQDISNYLNWYQQKPDGTVKLLIYYTSILHSGVPSRFSGSGSGTDYSLTISNLEQEDFATYFCQQGNTLPWTFGGGTKLEIK
For the molecule B1, the dissociation constant Kd is 4.2 nM, the off-rate (koff) came to 0.00014 s⁻¹ and the association rate constant (kon) is 33000 M⁻¹ s⁻¹.

The values above are taken from patent publication US20130171170A1.
